Tests used:
D2 domain of human LAG-3 = biological target: T1, D2 domain of human LAG-3 (human, UniProt P18627 169-260); experiment: not described
T1 sequence: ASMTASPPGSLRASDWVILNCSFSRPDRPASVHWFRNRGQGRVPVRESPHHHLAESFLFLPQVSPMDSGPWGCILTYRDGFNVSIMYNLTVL

[1] = biological target: HA glycoprotein of A/Puerto Rico/8/1934 (H1N1) influenza virus, purified (influenza virus A/Puerto Rico/8/1934 …, UniProt P03452 18-528); experiment: ELISA, plate coated with the fusion protein

Row | Binder | binding result (D2 domain of human LAG-3) | binding result [1]
1 | 23DKTYB19 (antibody, V domains shown) VH: QVQLKQSDAELVKPGASVKISCKVSGYTFTDHTIHWMKQRPEQGLEWIGYIYPRDGSTKYNEKFKGKATLTADKSSSTAYMQLNSLTSEDSAVCFCARTGSYAMDYWGQGTSVTVSS VL: DIVMTQSPASLAVSLGQRATISCKASQSVDYDGDSYMNWYQQKPGQPPKLLIYAASNLESGIPARFSGSGSGTDFTLNIHPVEEEDAATYYCQQSNEDPYTFGG | binds | 
2 | KIR2DL1 fused to the IgG1 Fc domain (Fc fusion) HEGVHRKPSLLAHPGRLVKSEETVILQCWSDVMFEHFLLHREGMFNDTLRLIGEHHDGVSKANFSISRMTQDLAGTYRCYGSVTHSPYQVSAPSDPLDIVIIGLYEKPSLSAQLGPTVLAGENVTLSCSSRSSYDMYHLSREGEAHERRLPAGPKVNGTFQADFPLGPATHGGTYRCFGSFHDSPYEWSKSSDPLLVSVTGNPSNSWPSPTEPSSKTGNPRHLH |  | no binding
3 | 23DKTYB4 (antibody, V domains shown) VH: QVQLKQSDDELVKPGASVKISCKVSGYTFTDHTIHWMKQRPEQGLEWIGYIYPRDGSTKYNEKFKGKATLTADKSSSTAYMQLNSLTSEDSAVYFCARRRSYYGSSFYFDVWGTGTTVSV VL: DIQMTQSTSSLSASLGDRVTISCRASQDISNYLNWYQQKPDGTVKLLIYYTSRLHSGVPSRFSGSGSGTDYSLTISNLEQEDIATYFCQQGNTLPWTFGGGTK | binds | 
